Values belong to the molecule of their own block, whether it stands above or below them.
How the values were obtained:
[1] = biological target: recombinant human IL-1 (human); assay: cell-based or functional assay
human IL-13 (human) = human IL-13 (human) (UniProt P35225); assay: cell-based or functional assay
human IL-4 (human) = human IL-4 (human) (UniProt P05112); assay: cell-based or functional assay
human IL-6 (human) [2] = biological target: human IL-6 (human) (UniProt P05231); assay: cell-based or functional assay
human IL-6 (human) [3] = biological target: human IL-6 (human) (UniProt P05231); assay: dissociation of 20 pM 125I-IL-6 from 500 pM mAb B-E8 after a 1000-fold excess of cold IL-6; Protein G-Sepharose precipitation
human IL-6 (human) [4] = biological target: human IL-6 (human) (UniProt P05231); assay: cell-based or functional assay; remark: listed apart in the source
gp130 on PC12D cells = biological target: T1, gp130 on PC12D cells (UniProt P40190); assay: cell-based or functional assay
T1 sequence (looked up): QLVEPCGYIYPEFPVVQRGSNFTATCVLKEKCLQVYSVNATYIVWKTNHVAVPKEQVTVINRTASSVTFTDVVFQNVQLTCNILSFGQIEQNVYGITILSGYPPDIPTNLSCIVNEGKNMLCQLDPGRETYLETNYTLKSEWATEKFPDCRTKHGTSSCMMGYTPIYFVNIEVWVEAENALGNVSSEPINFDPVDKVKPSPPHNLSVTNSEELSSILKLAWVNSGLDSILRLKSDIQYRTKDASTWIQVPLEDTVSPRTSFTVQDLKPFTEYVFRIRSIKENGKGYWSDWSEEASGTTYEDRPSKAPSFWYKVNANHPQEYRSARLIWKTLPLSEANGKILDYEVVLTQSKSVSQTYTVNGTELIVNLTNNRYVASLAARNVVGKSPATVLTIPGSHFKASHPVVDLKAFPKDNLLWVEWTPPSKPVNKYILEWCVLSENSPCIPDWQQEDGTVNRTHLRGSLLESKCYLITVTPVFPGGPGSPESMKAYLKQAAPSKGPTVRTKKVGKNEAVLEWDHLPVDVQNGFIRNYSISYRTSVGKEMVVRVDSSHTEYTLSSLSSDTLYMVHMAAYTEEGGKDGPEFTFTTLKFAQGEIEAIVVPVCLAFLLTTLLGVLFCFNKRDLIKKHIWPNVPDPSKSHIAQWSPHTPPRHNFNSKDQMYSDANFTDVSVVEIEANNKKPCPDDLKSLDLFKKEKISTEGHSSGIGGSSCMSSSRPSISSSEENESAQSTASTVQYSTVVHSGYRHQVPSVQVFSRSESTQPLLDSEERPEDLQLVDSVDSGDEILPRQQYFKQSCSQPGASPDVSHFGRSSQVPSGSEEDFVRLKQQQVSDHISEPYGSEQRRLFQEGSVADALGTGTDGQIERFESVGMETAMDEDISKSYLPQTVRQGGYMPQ

Chain of human IL-6 (human) (P05231 30-212 limits assumed): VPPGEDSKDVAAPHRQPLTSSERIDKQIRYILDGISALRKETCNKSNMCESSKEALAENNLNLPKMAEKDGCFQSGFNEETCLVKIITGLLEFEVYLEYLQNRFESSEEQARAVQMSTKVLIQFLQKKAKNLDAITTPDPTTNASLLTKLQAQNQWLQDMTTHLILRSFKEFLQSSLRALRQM
Chain of human IL-4 (human) (P05112 25-153 limits assumed): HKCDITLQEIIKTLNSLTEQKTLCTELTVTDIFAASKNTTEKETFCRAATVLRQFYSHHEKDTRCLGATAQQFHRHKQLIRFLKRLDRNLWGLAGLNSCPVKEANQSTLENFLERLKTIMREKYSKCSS
Chain of human IL-13 (human) (P35225 35-146 limits assumed): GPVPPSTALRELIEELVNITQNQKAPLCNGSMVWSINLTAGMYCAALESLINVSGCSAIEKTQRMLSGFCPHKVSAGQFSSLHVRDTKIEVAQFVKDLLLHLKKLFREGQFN

Molecule: IL-1-RI.Fc (from UniProt P14778 18-336) (Fc fusion)
- IL-1-dependent production of IL-6 by MRC5 cells; highest IL-1 concentration blocked [1]: 10 to 20 pM

Molecule: IL-13Rα1.IL-4Rα.Fc (Fc fusion)
- TF1 bioassay (MTS); IL-13 concentration at which growth is inhibited by 50% with 10 nM Trap (human IL-13 (human)): 4 to 5 nM
- TF1 bioassay (MTS); highest IL-13 concentration whose growth effect is blocked by 10 nM Trap (human IL-13 (human)): 2 nM
- TF1 bioassay (MTS); IL-4 concentration at which growth is inhibited by 50% with 10 nM Trap (human IL-4 (human)): 3 to 4 nM
- TF1 bioassay (MTS); highest IL-4 concentration whose growth effect is blocked by 10 nM Trap (human IL-4 (human)): 1 nM

B1: anti-IL-6 monoclonal neutralizing antibody B-E8 (antibody, from another filing, V domains shown)
VH: QVTLKESGPGILKPSQTLSLTCSFSGFSLSTSGMGVGWIRQPSGKGLEWLAHIWWDDDKYYNPSLKSQLTISKDTSRNQVFLKITSVDTADTATYYCARSYDDYLYYALDYWGQGTSVTVSS
VL: DIVMTQSPATLSVTPGDRVSLSCRASQSISDYLHWYQQKSHESPRLLIKSVSQSISGIPSRFSGSGSGSDFTLSINSVEPEDVGVYYCQNGHSFPLTFGAGTKLELK
- percent of the initial counts of 125I-IL-6 still bound after three days (human IL-6 (human) [3]): < 5%
- IL-6-dependent proliferation of XG-1 cells (MTT assay, 50 pg/ml IL-6) (fold molar excess) (human IL-6 (human) [4]): 10

Next, values leading:

- TF1 bioassay (MTS); IL-13 concentration at which growth is inhibited by 50% with 10 nM Trap (human IL-13 (human)): 4 to 5 nM
- TF1 bioassay (MTS); highest IL-13 concentration whose growth effect is blocked by 10 nM Trap (human IL-13 (human)): 2 nM
- TF1 bioassay (MTS); IL-4 concentration at which growth is inhibited by 50% with 10 nM Trap (human IL-4 (human)): 3 to 4 nM
- TF1 bioassay (MTS); highest IL-4 concentration whose growth effect is blocked by 10 nM Trap (human IL-4 (human)): 1 nM
Molecule: IL-4Rα.IL-13Rα1.Fc (Fc fusion)

- IL-6-dependent proliferation of XG-1 cells (MTT assay) (fold molar excess over IL-6) (human IL-6 (human) [2]): 1000
Molecule: gp130-Fc•CNTFRα-Fc ligand Trap (Fc fusion)

- tyrosine phosphorylation of gp130 induced by IL-6 and sIL-6Rα in PC12D cells (gp130 on PC12D cells): 8 nM
- tyrosine phosphorylation of gp130 induced by IL-6 in PC12D cells (anti-gp130 immunoprecipitation, anti-phosphotyrosine immunoblot) (gp130 on PC12D cells): 2 nM
B2: Rat CNTF (ligand, UniProt P20294 1-200, looked up)
chain: MAFAEQTPLTLHRRDLCSRSIWLARKIRSDLTALMESYVKHQGLNKNINLDSVDGVPVASTDRWSEMTEAERLQENLQAYRTFQGMLTKLLEDQRVHFTPTEGDFHQAIHTLMLQVSAFAYQLEELMVLLEQKIPENEADGMPATVGDGGLFEKKLWGLKVLQELSQWTVRSIHDLRVISSHQMGISALESHYGAKDKQM

From patent US20030143697A1
